Results from patent US20240293316A1, “ENZYME-RESPONSIVE POLYMER PEPTIDE AMPHIPHILES FOR TARGETED DRUG DELIVERY TO TREAT LOCAL AND SYSTEMIC INFLAMMATION” (Ramot at Tel-Aviv University Ltd., priority 2021, published 2024).
Square brackets hold non-standard residues; d marks the D form. Ends that are not written are not given here. * marks the point of attachment. NorAHA = (N-hexanoic acid)-5-norbornene-exo-2,3-dicarboximide, O=C1[C@@H]2[C@H](C(=O)N1CCCCCC(=O)*)[C@H]1C=C[C@@H]2C1

Assays:
MMP-9 = MMP-9 (Homo sapiens, UniProt P14780); assay: MMP-9 cleavage assay of norbornene peptide monomers (HPLC); format: biochemical; details: 0.5 μM MMP-9: 500 μM NorMMP, 24 hours of incubation at 37° C.
Procedure: Stock solution of NorMMP peptide (510 μM) was prepared in DPBS buffer. To an Eppendorf tube, 1.5 μL MMP-9 stock (38.46 μM) and […] of NorMMP stock was added, giving a final concentration of 0.5 μM MMP-9: 500 μM NorMMP. The solution was incubated at 37° C. for 24 hours to promote peptide cleavage. To prepare the HPLC sample, 50 μL of the reaction mixture was added to 150 μL of DPBS buffer. 40 μL of resulting solution was injected into HPLC for analysis. For NorMMPL, NorMMPD and the cleavable sequence ([…]), a gradient of 20-60% Buffer B over 30 minutes was used. For the NorMMPR, a gradient of 20-40% Buffer B in 30 minutes was used.
Three test groups, including the norbornenes functionalized with random peptide (NorMMPR), D- and L-MMP peptide (NorMMPD and NorMMPL), and one control group with the cleaved peptide sequence […] were setup.

thermolysin = thermolysin (Bacillus thermoproteolyticus, UniProt P00800); details: 1 μM thermolysin:100 μM polymer, 24 hours incubation at 37° C.
Procedure: Transmission electron microscopy (TEM): Nanoparticles were characterized using a Hitachi HD-2300 STEM. Grids were prepared using a 1% uranyl acetate solution.
The nanoparticle cleavage experiment was performed similarly as described in Materials and Methods section, using a ratio of 1 μM thermolysin:100 μM polymer for 24 hours incubation at 37° C.

[1] = test system: diabetic rats following collagen membrane implantation; assay: Diabetic rats with implanted collagen membrane, fluorescence imaging of DEX-containing nanoparticles; format: in vivo, Female Sprague Dawley rats; details: for order of in-vivo fluorescence intensity: 7- and 14-days post injection
Procedure: (§1) “Diabetic induction” model [Zoabi et al. 2020, supra]: Type 1-like diabetes was induced through a single intraperitoneal injection of streptozotocin, and the induction of hyperglycemia is confirmed by a blood glucose level that is higher than 270 mg/dL at 7 days post injection;
(§2) “Collagen membrane implantation” under scalp of diabetic rats, wherein a para-sagital excisional wound, 10 mm in length, was created in the center of the skin of the calvaria, the periosteum was separated from the skull bone, and a collagen membrane was implanted beneath [Eliezer M, Nemcovsky C, Romanos G, Kozlovsky A, Tal H, Kolerman R, Weinreb M, Moses O. Opposing effects of diabetes and tetracycline on the degradation of collagen membranes in rats. J Periodontol. 2013 April; 84(4):529-34; Tal H, Weinreb M, Shely A, Nemcovsky C E, Moses O. Tetracycline impregnation affects degradation of porcine collagen matrix in healthy and diabetic rats. Clin Oral Investig. 2016 July; 20(6):1237-42; Moses O, Eliezer M, Nemcovsky C, Tal H, Weinreb M. Accelerated degradation of collagen membranes in diabetic rats is associated with increased infiltration of macrophages and blood vessels. Clin Oral Investig. 2016 September; 20(7):1589-96; Eliezer M, Sculean A, Miron R J, Nemcovsky C, Weinberg E, Weinreb M, Zoabi H, Bosshardt D D, Fujioka-Kobayashi M, Moses O. Hyaluronic acid slows down collagen membrane degradation in uncontrolled diabetic rats. J Periodontal Res. 2019 December; 54(6):644-652; and Zoabi H, Nemcovsky C E, Bender O, Moses O, Weinreb M. Accelerated degradation of collagen membranes in type 1 diabetic rats is associated with increased expression and production of several inflammatory molecules. J Periodontol. 2020 October; 91(10):1348-13561.
Type 1-like diabetes was induced as described in the Materials and Methods section, and the induction of hyperglycemia was confirmed by a blood glucose level higher than 270 mg/dL 7 days post injection (see, FIGS. 13A and 13B).
(§3) At day 8, the rats were randomly divided into five groups to receive one single dosage of: i) NPL, ii) NPD, iii) NPR, iv) free DEX, or v) no injection, through a subcutaneous injection posterior to the ear (n=12 for each treatment group and n=3 for the no injection control group). For each treated group, 260 μg of DEX (either free-form or conjugated to the polymer) was used to provide a […] dosage similar to the literature value. Thus, the PPA NPs injection contained 250 μM polymer with 50% (125 μM) Cy 5.5 labeling, for each 200 μL injection.

[2] = Properties of the designed random peptide (water solubility, net charge); format: physicochemical
Procedure: A new random peptide sequence was designed by replacing the MMP recognizable amino acid sequence PLGLAG (SEQ ID NO: 16) into GSGSGS (SEQ ID NO: 20).
Following the preparation of peptide functionalized norbornene monomers, an MMP-9 cleavage assay was performed setup, as described in the Materials and Methods section hereinabove.

[3] = test system: diabetic rats following collagen membrane implantation; assay: Diabetic rats with implanted collagen membrane, histology of residual collagen membrane (HRP-Avidin); format: in vivo, Female Sprague Dawley rats
Procedure: as §1, §2, §3
Two weeks following injection, the rats were sacrificed with carbon dioxide overdose, and the skull together with the over lining periosteum and the membrane were harvested.
The harvested skull together with the over lining periosteum and the membrane were subjected to the following processing: tissues from 10 rats per group were fixed with paraformaldehyde, and processed for decalcified tissue histology, embedded in paraffin. […]

[4] = single dose, 260 μg of DEX, two weeks following injection

thermolysin, sequence (P00800 233-548, species assumed): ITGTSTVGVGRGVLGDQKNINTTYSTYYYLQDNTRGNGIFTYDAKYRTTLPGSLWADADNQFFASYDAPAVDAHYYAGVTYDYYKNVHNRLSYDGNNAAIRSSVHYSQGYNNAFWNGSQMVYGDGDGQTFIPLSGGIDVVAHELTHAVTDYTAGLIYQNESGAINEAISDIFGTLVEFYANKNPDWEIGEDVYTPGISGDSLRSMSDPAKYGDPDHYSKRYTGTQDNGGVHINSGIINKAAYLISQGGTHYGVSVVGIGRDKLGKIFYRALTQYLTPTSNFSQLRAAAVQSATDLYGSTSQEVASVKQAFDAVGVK
MMP-9, sequence (P14780 94-707): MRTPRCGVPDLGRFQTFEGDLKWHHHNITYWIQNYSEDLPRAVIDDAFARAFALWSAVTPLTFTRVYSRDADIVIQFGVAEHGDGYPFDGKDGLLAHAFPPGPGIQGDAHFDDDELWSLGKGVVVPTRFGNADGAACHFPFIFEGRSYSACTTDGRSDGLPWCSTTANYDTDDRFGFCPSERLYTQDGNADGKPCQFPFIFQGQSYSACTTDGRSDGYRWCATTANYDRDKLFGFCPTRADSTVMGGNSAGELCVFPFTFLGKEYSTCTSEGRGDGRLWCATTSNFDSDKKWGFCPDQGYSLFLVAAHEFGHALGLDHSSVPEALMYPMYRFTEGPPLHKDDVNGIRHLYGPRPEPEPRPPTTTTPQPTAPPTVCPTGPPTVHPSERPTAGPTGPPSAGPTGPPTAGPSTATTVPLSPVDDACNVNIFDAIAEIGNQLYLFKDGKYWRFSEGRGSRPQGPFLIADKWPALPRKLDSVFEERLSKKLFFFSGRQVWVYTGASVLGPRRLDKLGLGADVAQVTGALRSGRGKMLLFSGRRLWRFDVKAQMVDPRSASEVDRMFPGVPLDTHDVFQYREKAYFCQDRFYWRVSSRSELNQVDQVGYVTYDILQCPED

| Substance | cleavage by MMP-9 (HPLC traces) (MMP-9) | nanoparticle morphology upon thermolysin treatment (TEM) (thermolysin) | order of in-vivo fluorescence intensity [1] | other results |
| --- | --- | --- | --- | --- |
| NorMMPL: norbornene monomer functionalized with L-MMP peptide (SEQ ID NO: 1), MMP-cleavable (NorAHA-GPLGLAGGERDG-NH2; SMILES CC(C)C[C@H](NC(=O)CNC(=O)[C@H](CC(C)C)NC(=O)[C@@H]1CCCN1C(=O)CNC(=O)CCCCCN1C(=O)[C@@H]2[C@H](C1=O)[C@H]1C=C[C@@H]2C1)C(=O)N[C@@H](C)C(=O)NCC(=O)NCC(=O)N[C@@H](CCC(=O)O)C(=O)N[C@@H](CCCNC(=N)N)C(=O)N[C@@H](CC(=O)O)C(=O)NCC(N)=O) | completely cleaved |  |  |  |
| NPR: micellar nanoparticles formed of DEX-containing random-peptide PPA (PPAR) (GGSGSGSGWGERDGS) |  | maintained their nanoparticle morphology | NPL>NPD>NPR |  |
| MMP peptide: peptide comprising PLGLAG sequence with all L-amino acids (SEQ ID NO: 1), MMP-cleavable (GPLGLAGGERDG-NH2) |  |  |  | net charge ([2]; pH=7): −1 |
| NorMMPD: norbornene monomer with D-MMP peptide (SEQ ID NO: 2), D-amino acids in the PLGLAG portion (NorAHA-G[dP][dL]G[dL][dA]GGERDG-NH2; not fully specified) | remained intact |  |  |  |
| GGSGSGSGWGERDGS-NH2 (C-terminus assumed) [random peptide] |  |  |  | water solubility [2]: good water solubility |
| NorMMPR: norbornene monomer with R-MMP random peptide (SEQ ID NO: 17) (NorAHA-GGSGSGSGWGERDGS-NH2; not fully specified) | remained intact |  |  |  |
| NPD: micellar nanoparticles formed of DEX-containing D-MMP-containing PPA (PPAD) (NorAHA-G[dP][dL]G[dL][dA]GGERDG-NH2; not fully specified; also: grafted via NorAHA into ROMP polynorbornene block copolymer, micellar nanoparticle) |  | maintained their nanoparticle morphology | NPL>NPD>NPR |  |
| NPL: micellar nanoparticles formed of DEX-containing L-MMP-containing PPA (PPAL) (NorAHA-GPLGLAGGERDG-NH2; not fully specified; also: micellar nanoparticle of NorDEX20-b-NorMMP5 polynorbornene block copolymer with DEX ester) |  | cleavage induced aggregation | NPL>NPD>NPR | collagen membrane area, higher than the free dexamethasone group [3, 4]: about 20%; collagen membrane area, higher than the no treatment group [3, 4]: about 40%; remaining collagen membrane area compared to free-form dexamethasone-treated group [3, 4]: significantly larger; voids in the residual collagen membranes compared to free-form dexamethasone and no injection groups ([3]; staining and histology analysis): significantly less voids; in-vivo fluorescence intensity compared to NPD and NPR controls ([1]; 7- and 14-days post injection (day 14 and day 21)): significantly higher |
